{"source": "IntAct's records for PubMed 20543824", "parents": {"B1": {"name": "Nuclear RNAi defective-3 protein (Caenorhabditis elegans), Q21691 (parent)", "chain": "MDLLDKVMGEMGSKPGSTAKKPATSASSTPRTNVWGTAKKPSSQQQPPKPLFTTPGSQQGSLGGRIPKREHTDRTGPDPKRKPLGGLSVPDSFNNFGTFRVQMNAWNLDISKMDERISRIMFRATLVHTDGRRFELSLGVSAFSGDVNRQQRRQAQCLLFRAWFKRNPELFKGMTDPAIAAYDAAETIYVGCSFFDVELTEHVCHLTEADFSPQEWKIVSLISRRSGSTFEIRIKTNPPIYTRGPNALTLENRSELTRIIEAITDQCLHNEKFLLYSSGTFPTKGGDIASPDEVTLIKSGFVKTTKIVDRDGVPDAIMTVDTTKSPFYKDTSLLKFFTAKMDQLTNSGGGPRGHNGGRERRDGGGNSRKYDDRRSPRDGEIDYDERTVSHYQRQFQDERISDGMLNTLKQSLKGLDCQPIHLKDSKANRSIMIDEIHTGTADSVTFEQKLPDGEMKLTSITEYYLQRYNYRLKFPHLPLVTSKRAKCYDFYPMELMSILPGQRIKQSHMTVDIQSYMTGKMSSLPDQHIKQSKLVLTEYLKLGDQPANRQMDAFRVSLKSIQPIVTNAHWLSPPDMKFANNQLYSLNPTRGVRFQTNGKFVMPARVKSVTIINYDKEFNRNVDMFAEGLAKHCSEQGMKFDSRPNSWKKVNLGSSDRRGTKVEIEEAIRNGVTIVFGIIAEKRPDMHDILKYFEEKLGQQTIQISSETADKFMRDHGGKQTIDNVIRKLNPKCGGTNFLIDVPESVGHRVVCNNSAEMRAKLYAKTQFIGFEMSHTGARTRFDIQKVMFDGDPTVVGVAYSLKHSAQLGGFSYFQESRLHKLTNLQEKMQICLNAYEQSSSYLPETVVVYRVGSGEGDYPQIVNEVNEMKLAARKKKHGYNPKFLVICTQRNSHIRVFPEHINERGKSMEQNVKSGTCVDVPGASHGYEEFILCCQTPLIGTVKPTKYTIIVNDCRWSKNEIMNVTYHLAFAHQVSYAPPAIPNVSYAAQNLAKRGHNNYKTHTKLVDMNDYSYRIKEKHEEIISSEEVDDILMRDFIETVSNDLNAMTINGRNFWA", "partner": "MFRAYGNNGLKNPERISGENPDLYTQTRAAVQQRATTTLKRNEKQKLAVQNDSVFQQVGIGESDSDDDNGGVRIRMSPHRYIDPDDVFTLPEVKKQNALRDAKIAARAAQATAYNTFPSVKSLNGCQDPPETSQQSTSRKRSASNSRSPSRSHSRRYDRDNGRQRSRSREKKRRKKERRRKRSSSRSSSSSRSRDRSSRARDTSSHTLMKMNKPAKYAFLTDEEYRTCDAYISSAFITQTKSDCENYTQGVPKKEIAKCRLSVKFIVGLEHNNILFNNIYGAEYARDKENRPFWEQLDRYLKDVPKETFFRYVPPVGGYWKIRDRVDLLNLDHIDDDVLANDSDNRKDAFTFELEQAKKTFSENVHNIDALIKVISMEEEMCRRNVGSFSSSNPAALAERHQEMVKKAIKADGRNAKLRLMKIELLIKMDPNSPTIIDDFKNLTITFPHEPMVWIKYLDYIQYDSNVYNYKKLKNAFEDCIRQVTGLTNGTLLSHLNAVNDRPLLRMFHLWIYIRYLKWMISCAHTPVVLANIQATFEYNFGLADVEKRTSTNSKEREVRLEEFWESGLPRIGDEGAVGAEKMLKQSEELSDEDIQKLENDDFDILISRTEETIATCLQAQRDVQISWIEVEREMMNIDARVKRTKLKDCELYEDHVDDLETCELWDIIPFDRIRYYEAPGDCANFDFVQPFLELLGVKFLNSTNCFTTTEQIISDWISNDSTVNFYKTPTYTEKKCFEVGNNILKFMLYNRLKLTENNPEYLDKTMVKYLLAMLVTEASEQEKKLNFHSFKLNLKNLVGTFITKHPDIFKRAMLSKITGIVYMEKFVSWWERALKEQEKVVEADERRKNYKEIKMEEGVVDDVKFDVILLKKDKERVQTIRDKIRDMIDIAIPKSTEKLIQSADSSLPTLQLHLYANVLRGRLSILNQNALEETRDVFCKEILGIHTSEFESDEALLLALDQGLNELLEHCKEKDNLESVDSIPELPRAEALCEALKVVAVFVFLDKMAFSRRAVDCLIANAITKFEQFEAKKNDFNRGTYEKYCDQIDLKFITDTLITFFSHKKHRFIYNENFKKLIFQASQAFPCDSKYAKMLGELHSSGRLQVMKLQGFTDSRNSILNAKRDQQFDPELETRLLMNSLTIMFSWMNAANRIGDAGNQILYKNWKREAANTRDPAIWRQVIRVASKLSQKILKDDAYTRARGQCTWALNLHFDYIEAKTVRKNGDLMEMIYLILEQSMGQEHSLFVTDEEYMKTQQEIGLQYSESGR"}}}
{"variants_of": "B1", "settings": "with nrde2_caeel nrde-2, G5EG51"}
{"variant": "K80A;R81A;K82A", "effect of a mutation on the interaction": "disrupting interaction"}
